Literature values, collected in article PMC4059402 (Chembiochem : a European journal of chemical biology, 2014).

Details: with laurate

B1: wild-type CYP102A1: long-chain fatty acid monoxygenase CYP102A1 (P450BM3) from B. megaterium (protein, UniProt P14779 1-1049, looked up)
Bifunctional cytochrome …: MTIKEMPQPKTFGELKNLPLLNTDKPVQALMKIADELGEIFKFEAPGRVTRYLSSQRLIKEACDESRFDKNLSQALKFVRDFAGDGLFTSWTHEKNWKKAHNILLPSFSQQAMKGYHAMMVDIAVQLVQKWERLNADEHIEVPEDMTRLTLDTIGLCGFNYRFNSFYRDQPHPFITSMVRALDEAMNKLQRANPDDPAYDENKRQFQEDIKVMNDLVDKIIADRKASGEQSDDLLTHMLNGKDPETGEPLDDENIRYQIITFLIAGHETTSGLLSFALYFLVKNPHVLQKAAEEAARVLVDPVPSYKQVKQLKYVGMVLNEALRLWPTAPAFSLYAKEDTVLGGEYPLEKGDELMVLIPQLHRDKTIWGDDVEEFRPERFENPSAIPQHAFKPFGNGQRACIGQQFALHEATLVLGMMLKHFDFEDHTNYELDIKETLTLKPEGFVVKAKSKKIPLGGIPSPSTEQSAKKVRKKAENAHNTPLLVLYGSNMGTAEGTARDLADIAMSKGFAPQVATLDSHAGNLPREGAVLIVTASYNGHPPDNAKQFVDWLDQASADEVKGVRYSVFGCGDKNWATTYQKVPAFIDETLAAKGAENIADRGEADASDDFEGTYEEWREHMWSDVAAYFNLDIENSEDNKSTLSLQFVDSAADMPLAKMHGAFSTNVVASKELQQPGSARSTRHLEIELPKEASYQEGDHLGVIPRNYEGIVNRVTARFGLDASQQIRLEAEEEKLAHLPLAKTVSVEELLQYVELQDPVTRTQLRAMAAKTVCPPHKVELEALLEKQAYKEQVLAKRLTMLELLEKYPACEMKFSEFIALLPSIRPRYYSISSSPRVDEKQASITVSVVSGEAWSGYGEYKGIASNYLAELQEGDTITCFISTPQSEFTLPKDPETPLIMVGPGTGVAPFRGFVQARKQLKEQGQSLGEAHLYFGCRSPHEDYLYQEELENAQSEGIITLHTAFSRMPNQPKTYVQHVMEQDGKKLIELLDQGAHFYICGDGSQMAPAVEATLMKSYADVHQVSEADARLWLQQLEEKGRYAKDVWAG
  catalytic rate: 1,680 min^−1
